Experimental data: paper PMC12428095

How the values were obtained:
Settings in all cases: EMSA: 20 nM probe, 10 mM Tris-HCl pH 7.5, 50 mM KCl, 10 mM MgCl2, 5% glycerol, 20 min at 4 C, 5% native PAGE in TGE pH 8.3; footprinting: same binding system …
[1] = system: T1, CopR1 (Pseudomonas putida KT2440), ORF:c26c307e; assay: DNase I footprinting
T1 sequence: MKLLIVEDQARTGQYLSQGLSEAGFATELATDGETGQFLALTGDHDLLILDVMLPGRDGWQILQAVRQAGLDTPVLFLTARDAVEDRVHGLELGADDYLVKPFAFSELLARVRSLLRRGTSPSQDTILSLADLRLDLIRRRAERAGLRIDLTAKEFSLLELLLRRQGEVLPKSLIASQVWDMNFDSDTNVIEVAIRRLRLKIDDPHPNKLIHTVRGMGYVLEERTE

[2] = system: T2, CopR2 (Pseudomonas putida KT2440), ORF:6041cc23; assay: DNase I footprinting
T2 sequence: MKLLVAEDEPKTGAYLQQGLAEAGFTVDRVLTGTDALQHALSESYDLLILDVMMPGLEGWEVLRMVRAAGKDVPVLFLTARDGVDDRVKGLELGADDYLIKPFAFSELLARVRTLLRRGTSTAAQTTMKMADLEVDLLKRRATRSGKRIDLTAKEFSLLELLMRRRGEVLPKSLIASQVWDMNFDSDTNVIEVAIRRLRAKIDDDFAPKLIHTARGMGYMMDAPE

[3] = system: T1, CopR1 (Pseudomonas putida KT2440), ORF:c26c307e; assay: EMSA
[4] = system: T2, CopR2 (Pseudomonas putida KT2440), ORF:6041cc23; assay: EMSA

Measured: binding

CTTTGACAAACGTACGGCGGGAGGGGTTGCGCAACATGGCGAGGCCTCATGCGGAATAGCCACGATGTTCGCTGCCGCCTGCTGTCAGGTAGCTGAGGTGCACATTACAGTGTTGTCAGCTTGCTGCTTCGTCGATGCGCAGGTCGCGCATCAGCAGGCCGTAGTCGAGGGCAACCTGTTCCGGGATCGGCAGATACACCACATGGCCATCGCCCGGTGCGACCTCGATGGCGTGCTGCTACTGGCCGTCGTTTTACA (double strand) [copA1 (copAB1) promoter probe]
binds: all assays above

TCGGTTCATCCTCAGCTACGAGTAGTTTCATGTGCTCAGCTTCCAAAGGTGTACACATCCAGTGTGCAGCAAAAAAAGGAGCTAACCAGAAGCTGACGTAAAAGTAATGTTGGTATCAGCCAGCTGTCAGGGCCTGCCGTCTACGGTCATTGAAGACGGGCATTGCAGTCACGCCTGCCGTTATCGGTAGCAATGGTTTCAACCCCCTGATGGAGAGAGTCCCATGAAATCGATCAGACTTTTGCTTGTGGCTACATCGATGCTGCTGACTGGCCGTCGTTTTACA (double strand) [copR2 (copRS2) promoter probe]
binds: all assays above

TGTAAAACGACGGCCAGTAGCCAGAGCCATAAACACGGGCAGCATGAGAACTGCTGATCCGAGCTTACAGAAATGTAATCACTCGGGAATCTTTTATGTGGCAGTTTCAAATCGCTTTCTCCCACTGTGACTTGCGCTTTCGAGCAAGTCCCTAAGACTTGTGGGATCCCCAAGGAAGCCGGGCCTGCGATCGAGCGGCCCGGATATCAGCGAATTATCTGACTGACTGGACACTACGGCATGCAAAGCAAAACCACGAGACGATCTTTCGTCAAAGGCCTGGC (double strand) [copA2 (copAB2) promoter probe]
binds: all assays above

TGTAAAACGACGGCCAGTGGGTGGCGGTAATGAACAGGTGTTTCATGATGACTCCGGGAATACACAGCAGGATGAGGCCACATTAGCCGGGGGCGACTGGCAGCTACCTGACAGGCACATTACAACTTTGTCAGCTTGGGCGAGCGGGCACATCGTCACGTATCATTTCAGCCATCCCATTGCCCCTGTGCTAGCGGTAAGGCGGCGCCATAGGCTACGCACAATCTTTCAGAATATGGACAGCGCATGAAACTGCTGATCGTCGAAGACCAGGC (double strand) [copR1 (copRS1) promoter probe]
binds: all assays above
